Experimental data: patent publication US20020002269A1, “ARTEMIN, A NEUROTROPHIC FACTOR” (priority 1998, published 2002)

B1: GDNF: recombinant human mature GDNF obtained from Genentech (protein, UniProt P39905 78-211, looked up)
Glial cell line-derived …: SPDKQMAVLPRRERNRQAAAANPENSRGKGRRGQRGKNRGCVLTAIHLNVTDLGLGYETKEELIFRYCSGSCDAAETTYDKILKNLSRNRRLVSDKVGQACCRPIAFDDDLSFLDDNLVYHILRKHSAKRCGCI

Experiments:
[1] = test system: NLF cells transformed with GFRα3; experiment: Ga14-Elk/Ga14-Luc reporter in NLF neuroblastoma cells transformed with GFRα3; type: cell-based; details: factor for 24 hours, low-serum medium, FIG. 10B
Procedure: (§1) Thus, to directly test which receptor combinations can form functional receptors for artemin, expression plasmids for the individual GFRA coreceptors together with the Ga14-Elk/Ga14-Luc reporter system were transiently transformed into fibroblasts that stably express RET. […]
(§2) NLF neuroblastoma cells, which naturally express GFRα2/RET (Tansey et al., submitted), or the RET-3T3 cells were plated at 85,000 cells/well in 12-well plates, and cotransfected with the reporter plasmids Ga14-Luc and CMV-Ga14-Elk (250 ng/well and 50 ng/well, respectively), CMV-lacZ (50 ng/well) for transfection normalization, one of the CMV-GFRA expression plasmids (500 ng/well), and pBluescript (650 ng/well) as carrier for a total of 1.5 μg DNA/well using the Superfect reagent (Qiagen) according to the manufacturer's instructions. […] Measurement of luciferase and β-galactosidase activity was measured using a luminometer and performed as described (Svaren et al., EMBO J 17:6010-6019, 1998). The average luciferase activity of duplicate samples was normalized to β-galactosidase activity of the cotransformed lacZ reporter, and fold activation was calculated by dividing the normalized activity in factor-treated cells by that in the no treatment control.

[2] = test system: NBL-S neuroblastoma cell line; experiment: BrdU cell proliferation assay in NBL-S neuroblastoma cells; type: cell-based; details: 50 ng/mL, 30 hrs after factor addition, FIG. 8D
Procedure: In another experiment, the ability of artemin to induce proliferation of the NBL-S neuroblastoma cell line was examined. NBL-S cells were plated at 5×10^4 cells/well on 48-well plates in standard medium, either without treatment or in the presence of 50 ng/mL of GDNF, artemin, or persephin. Actively dividing cells undergoing DNA synthesis 30 hrs after factor addition were detected using the BrdU (colorimetric) cell proliferation assay kit according to the manufacturer's instructions (Boehringer-Mannheim) and the data are shown in FIG. 8D.

[3] = test system: nodose ganglion (NG) neurons; experiment: Survival of cultured nodose ganglion neurons; type: cell-based, rat; details: FIG. 7D; for survival of NG neurons: 50 ng/ml, 3 days in culture; for survival promotion of NG neurons compared with BDNF: GDNF family ligands 50 ng/ml, BDNF 100 ng/ml
Procedure: (§3) Each GDNF ligand family member consisted of the human mature amino acid sequence and was produced by standard recombinant DNA methods. Recombinant GDNF, neurturin and persephin were obtained from Genentech while recombinant artemin was produced as described in Example 3.
(§4) The cultures were performed using standard methods described elsewhere (Kotzbauer et al., Neuron 12:763-773, 1994; Kotzbauer et al., Nature 384:467-470, 1996; Milbrandt et al., Neuron 20:245-253, 1998). In brief, for SCG neurons, after dissection and dissociation, neurons were plated on collagen-coated 24-well tissue culture plates and maintained in NGF-containing medium (AM50) for 5 days, after which they were either kept in AM50 or switched to medium containing neutralizing anti-NGF antibodies plus GDNF, neurturin, persephin, artemin, (50 ng/ml where not noted otherwise), or no growth factors. Cultures were maintained for 3 days, after which they were fixed in 4% paraformaldehyde and stained with toluidine blue, and surviving neurons were counted. For nodose ganglion and dorsal root ganglion neuron cultures, dissociated neurons were plated directly into NGF (for dorsal root ganglia), or BDNF (for nodose ganglia, 100 ng/ml) or one of the GDNF ligands in serum-containing medium (AM50 with anti-NGF antibodies), and cells surviving after 3 days in culture were counted as above. Trigeminal ganglia were dissected, dissociated, and plated directly into medium containing NGF or the indicated GDNF ligands, and the number of surviving cells was assessed after 3 days in vitro. For all culture systems, 2-3 independent experiments were performed.

[4] = test system: trigeminal ganglion (TG) neurons; experiment: Survival of cultured trigeminal ganglion neurons; type: cell-based, rat; details: 50 ng/ml, FIG. 7C; for survival of TG sensory neurons: 3 days in vitro
Procedure: as §3, §4

[5] = test system: CHP134 neuroblastoma cell line; experiment: Responsiveness of a neuroblastoma cell line that does not express RET (CHP134); type: cell-based; details: data not shown
GFRα1/RET = molecular target: T1, GFRα1/RET (UniProt P07949+Q62997); experiment: Ga14-Elk/Ga14-Luc reporter in RET-3T3 fibroblasts transfected with GFRα1; type: cell-based, rat GFRα1, human RET; details: FIG. 10A; for activation of RET signaling in cells expressing GFRα1/RET (luciferase reporter): RET-3T3, 50 ng/ml for 6-8 hours
T1 construct: expressed in transfected cells; host or cells: MG87 fibroblasts stably expressing human RET (RET-3T3), transiently transfected with the CMV-GFRα1 plasmid
Source text: Thus, to directly test which receptor combinations can form functional receptors for artemin, expression plasmids for the individual GFRA coreceptors together with the Ga14-Elk/Ga14-Luc reporter system were transiently transformed into fibroblasts that stably express RET. This system, which utilizes the ability of the Ga14-Elk fusion protein to respond to MAP kinase activity and activate transcription of the Ga14-luciferase reporter, has been used previously to monitor NGF/TrkA activation of the MAP kinase pathway in PC12 cells (Vossler et al., Cell 89:73-82, 1997; York et al., Nature 392:622-626, 1998), and GDNF/RET activation of MAP kinase in neuroblastoma cell lines (Worby et al., 1998, supra; Worby et al., J. Biol. Chem. 271:23619-23622, 1996).
Generation of the expression plasmids for rat GFRα1 and human GFRα2, as well as MG87 fibroblasts stably expressing human RET (RET-3T3), were described in detail previously (Baloh et al., 1997, supra; Creedon et al., 1997, supra). […]
as §2

GFRα3/RET = molecular target: T2, GFRα3/RET (Homo sapiens, UniProt O60609+P07949); experiment: Ga14-Elk/Ga14-Luc reporter in RET-3T3 fibroblasts transfected with GFRα3; type: cell-based; details: RET-3T3, 50 ng/ml for 6-8 hours, FIG. 10A
T2 construct: a fragment containing the complete coding region of human GFRα3 was PCR-amplified from a human pituitary cDNA library; expressed in transfected cells; host or cells: MG87 fibroblasts stably expressing human RET (RET-3T3), transiently transfected with pCB6-GFRα3
Procedure: as §1, §2

T1 sequence (Q62997 25-430 limits assumed): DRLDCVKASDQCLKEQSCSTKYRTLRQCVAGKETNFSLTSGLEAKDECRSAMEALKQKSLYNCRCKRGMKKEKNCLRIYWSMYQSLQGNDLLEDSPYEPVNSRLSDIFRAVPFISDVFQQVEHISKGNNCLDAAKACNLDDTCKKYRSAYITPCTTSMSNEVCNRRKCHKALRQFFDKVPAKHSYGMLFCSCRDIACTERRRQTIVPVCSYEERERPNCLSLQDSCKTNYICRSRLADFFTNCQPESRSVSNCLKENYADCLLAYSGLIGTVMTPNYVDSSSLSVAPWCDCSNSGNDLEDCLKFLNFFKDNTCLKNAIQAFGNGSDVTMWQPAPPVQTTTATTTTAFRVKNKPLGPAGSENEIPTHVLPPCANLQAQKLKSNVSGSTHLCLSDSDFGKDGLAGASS
T1 sequence (P07949 29-1114): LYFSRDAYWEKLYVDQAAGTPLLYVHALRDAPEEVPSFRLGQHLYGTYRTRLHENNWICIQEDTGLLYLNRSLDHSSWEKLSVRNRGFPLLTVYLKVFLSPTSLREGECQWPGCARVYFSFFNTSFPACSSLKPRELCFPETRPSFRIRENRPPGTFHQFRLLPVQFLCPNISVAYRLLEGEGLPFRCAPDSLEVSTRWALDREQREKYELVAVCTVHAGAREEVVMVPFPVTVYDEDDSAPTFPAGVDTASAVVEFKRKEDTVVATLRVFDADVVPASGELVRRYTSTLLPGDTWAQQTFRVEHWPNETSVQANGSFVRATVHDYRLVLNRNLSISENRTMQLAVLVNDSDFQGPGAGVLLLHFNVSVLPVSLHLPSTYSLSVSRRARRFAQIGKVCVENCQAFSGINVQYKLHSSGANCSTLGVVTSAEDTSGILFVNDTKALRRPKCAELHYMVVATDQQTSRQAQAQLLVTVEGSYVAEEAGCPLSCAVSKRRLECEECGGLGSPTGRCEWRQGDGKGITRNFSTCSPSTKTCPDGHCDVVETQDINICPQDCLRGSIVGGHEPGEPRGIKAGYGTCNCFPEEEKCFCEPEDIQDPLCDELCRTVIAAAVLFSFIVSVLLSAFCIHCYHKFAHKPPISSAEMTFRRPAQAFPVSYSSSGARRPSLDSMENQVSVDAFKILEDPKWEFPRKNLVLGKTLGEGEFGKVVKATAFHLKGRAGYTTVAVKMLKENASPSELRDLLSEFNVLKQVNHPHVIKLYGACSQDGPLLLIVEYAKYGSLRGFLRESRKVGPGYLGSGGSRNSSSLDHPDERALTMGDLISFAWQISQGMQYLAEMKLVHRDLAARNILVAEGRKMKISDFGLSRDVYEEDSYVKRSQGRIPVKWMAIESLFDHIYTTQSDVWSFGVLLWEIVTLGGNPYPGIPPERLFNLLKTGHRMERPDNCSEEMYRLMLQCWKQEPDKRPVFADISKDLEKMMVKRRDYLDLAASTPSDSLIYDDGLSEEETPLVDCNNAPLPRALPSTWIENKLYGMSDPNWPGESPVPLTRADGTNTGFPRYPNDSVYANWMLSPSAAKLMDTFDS
T2 sequence (O60609 32-374 limits assumed): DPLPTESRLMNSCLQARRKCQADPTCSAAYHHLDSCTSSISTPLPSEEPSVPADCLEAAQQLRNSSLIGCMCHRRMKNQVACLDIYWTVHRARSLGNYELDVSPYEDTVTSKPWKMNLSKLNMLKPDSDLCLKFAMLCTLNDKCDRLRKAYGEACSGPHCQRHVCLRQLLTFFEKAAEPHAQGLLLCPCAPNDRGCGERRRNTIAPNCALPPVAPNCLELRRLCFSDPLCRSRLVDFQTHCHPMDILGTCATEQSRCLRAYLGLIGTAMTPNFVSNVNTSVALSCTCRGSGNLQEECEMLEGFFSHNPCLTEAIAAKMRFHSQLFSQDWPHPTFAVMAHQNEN
T2 sequence (P07949 29-1114): as the sequence (P07949 29-1114) above

Row | Molecule | response of NLF cells transformed with GFRα3 (luciferase reporter) [1] | proliferation of NBL-S cells (BrdU incorporation) [2] | survival of NG neurons [3] | survival promotion of NG neurons compared with BDNF [3] | survival of TG sensory neurons [4] | number of TG neurons supported compared with GDNF or neurturin [4] | number of TG neurons supported compared with NGF [4] | response of CHP134 cells [5] | activation of RET signaling in cells expressing GFRα1/RET (luciferase reporter) (GFRα1/RET) | degree of RET activation in cells expressing GFRα1/RET compared with GDNF (GFRα1/RET; RET-3T3, 50 ng/ml) | activation of RET signaling in cells expressing GFRα3/RET (luciferase reporter) (GFRα3/RET)
1 | artemin: recombinant mature human artemin (FIG. 3A, SEQ ID NO:3) with 8-histidine tag, produced in E. coli; GDNF family neurotrophic factor | allowed the cells to respond to artemin stimulation | stimulated proliferation of NBL-S cells | supported similar numbers of NG neurons | equal or greater survival promotion than BDNF | supported the survival of a subset of sensory neurons | supported a larger number of neurons than GDNF or neurturin | a greater number (TG) | did not respond | able to activate RET in cells expressing GFRα1/RET | to a lesser degree than GDNF | able to activate GFRα3/RET
2 | B1 | decreased the ability of the cells to respond to GDNF | stimulated proliferation of NBL-S cells | supported similar numbers of NG neurons | equal or greater survival promotion than BDNF | supported the survival of a subset of sensory neurons |  |  | did not respond | activated RET signaling |  | not GFRα3/RET
